# Assay results published in the Immune Epitope Database (IEDB).
# Assays:
# HLA-C*12:03 = test: IEDB peptide-MHC binding, purified MHC/direct/fluorescence; filed as Kd, often an IC50 or EC50 that approximates it; ≥ and ≤ were set here for values at or beyond the usual limits of such assays; conditions: source organism: Rickettsia bellii RML369-C
# HLA-C*07:02 = test: as above; conditions: source organism: Rickettsia bellii RML369-C
# HLA-C*03:03 = test: as above; conditions: source organism: Rickettsia bellii RML369-C
# HLA-C*14:02 = test: as above; conditions: source organism: Rickettsia bellii RML369-C
# HLA-C*15:02 = test: as above; conditions: source organism: Rickettsia bellii RML369-C
# HLA-C*08:02 = test: as above; conditions: source organism: Rickettsia bellii RML369-C
# HLA-C*05:01 = test: as above; conditions: source organism: Rickettsia bellii RML369-C
# HLA-B*15:42 = test: IEDB peptide-MHC binding, purified MHC/competitive/fluorescence; filed as Kd, often an IC50 or EC50 that approximates it; ≥ and ≤ were set here for values at or beyond the usual limits of such assays; conditions: source organism: Rickettsia bellii RML369-C
# HLA-C*06:02 = test: as above; conditions: source organism: Rickettsia bellii RML369-C
# HLA-B*45:06 = test: as above; conditions: source organism: Rickettsia bellii RML369-C
# HLA-B*83:01 = test: as above; conditions: source organism: Rickettsia bellii RML369-C
# HLA-B*27:20 = test: as above; conditions: source organism: Rickettsia bellii RML369-C
# HLA-B*15:02 = test: as above; conditions: source organism: Rickettsia bellii RML369-C
# HLA-A*68:23 = test: as above; conditions: source organism: Rickettsia bellii RML369-C
# HLA-A*80:01 = test: IEDB peptide-MHC binding, purified MHC/direct/fluorescence; filed as Kd, often an IC50 or EC50 that approximates it; ≥ and ≤ were set here for values at or beyond the usual limits of such assays; conditions: source organism: Orthohantavirus andesense
# HLA-B*51:01 = test: as above; conditions: source organism: Orthohantavirus tulaense
# HLA-A*01:01 = test: as above; conditions: source organism: Orthohantavirus andesense
# HLA-A*25:01 = test: as above; conditions: source organism: Orthohantavirus tulaense
# HLA-B*40:01 = test: as above; conditions: source organism: Orthohantavirus tulaense
# HLA-A*29:02 = test: as above; conditions: source organism: Orthohantavirus tulaense
# HLA-B*07:02 = test: as above; conditions: source organism: Orthohantavirus tulaense
sequence,measurement,setting,value
FAYKTGSSM,Kd,HLA-C*12:03,≤ 1 nM
same,Kd,HLA-C*07:02,876 nM
same,Kd,HLA-C*03:03,≤ 1 nM
same,Kd,HLA-C*14:02,114 nM
same,Kd,HLA-C*15:02,4 nM
same,Kd,HLA-C*08:02,90 nM
same,Kd,HLA-C*05:01,1480 nM
same,Kd,HLA-B*15:42,≥ 5000 nM
same,Kd,HLA-C*06:02,125 nM
same,Kd,HLA-B*45:06,≥ 5000 nM
same,Kd,HLA-B*83:01,≥ 5000 nM
same,Kd,HLA-B*27:20,23.4 nM
same,Kd,HLA-B*15:02,12.7 nM
same,Kd,HLA-A*68:23,51.2 nM
ATATWFQYY,Kd,HLA-A*80:01,14.2 nM
same,Kd,HLA-B*51:01,≥ 20000 nM
same,Kd,HLA-A*01:01,16.3 nM
same,Kd,HLA-A*25:01,≥ 20000 nM
same,Kd,HLA-B*40:01,≥ 20000 nM
same,Kd,HLA-A*29:02,≤ 1 nM
same,Kd,HLA-B*07:02,≥ 20000 nM
